Numbering of substitutions follows the chain as printed.
T1: human transglutaminase type 2 (TG2) (human, UniProt P21980 1-687)
T1 sequence: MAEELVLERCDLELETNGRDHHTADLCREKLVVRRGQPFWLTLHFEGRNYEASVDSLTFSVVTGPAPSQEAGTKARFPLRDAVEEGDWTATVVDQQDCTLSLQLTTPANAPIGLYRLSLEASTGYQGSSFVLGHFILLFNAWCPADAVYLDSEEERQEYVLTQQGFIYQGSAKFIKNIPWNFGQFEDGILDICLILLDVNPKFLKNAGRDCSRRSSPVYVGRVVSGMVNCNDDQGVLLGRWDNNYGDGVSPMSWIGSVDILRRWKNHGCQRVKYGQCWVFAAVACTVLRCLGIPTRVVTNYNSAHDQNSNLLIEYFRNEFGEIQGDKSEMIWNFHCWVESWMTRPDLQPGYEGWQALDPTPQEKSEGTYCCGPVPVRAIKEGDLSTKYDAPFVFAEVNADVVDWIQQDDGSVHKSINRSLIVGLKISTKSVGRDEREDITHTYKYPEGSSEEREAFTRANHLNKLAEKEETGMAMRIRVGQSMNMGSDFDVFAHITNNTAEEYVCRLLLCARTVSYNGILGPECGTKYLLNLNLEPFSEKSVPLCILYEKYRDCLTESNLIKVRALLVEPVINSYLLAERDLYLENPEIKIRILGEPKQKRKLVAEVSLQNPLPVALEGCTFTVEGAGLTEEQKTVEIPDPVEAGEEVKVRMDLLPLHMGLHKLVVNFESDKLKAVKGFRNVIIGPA

T2: cynomolgus monkey TG2 (cynomolgus monkey, UniProt A0A2K5VXI8 1-687)
T2 sequence: T1 sequence with E4D, Q157R, N177S, H413S, I421T, Y528H, V542I

B1: hAB004 (hAB001AE) humanised AB1 antibody (antibody, V domains shown)
VH: EVQLLESGGGLVQPGGSLRLSCAASGFTFSSSAMSWVRQAPGKGLEWVSTISVGGGKTYYPDSVKGRFTISRDNSKNTLYLQMNSLRAEDTAVYYCAKLISLYWGQGTLVTVSS
VL: EIVLTQSPSSLSASVGDRVTITCKASQDINSYLTWYQQKPGKAPKLLIYRTNRLFDGVPSRFSGSGSGTDFFFTISSLQPEDFGTYYCLQYDDFPYTFGGGTKLEIK
notes: they were captured by anti-human IgG1 (Fc); also called Heavy Chain version RHA with Light Chain version RKE
B2: hBB001AA humanised BB7 antibody (antibody, V domains shown)
VH: B1 VH with V53S, G56R, K57S, L102P
VL: DIQMTQSPSSLSASVGDRVTITCKASQDINSYLTWFQQKPGKAPKSLIYLTNRLMDGVPSRFSGSGSGTDFFLTISSLQPEDFATYYCLQYVDFPYTFGQGTKVEIK
notes: captured by anti-human IgG1 (Fc); also called hBB01AA
B3: hBB001BB humanised BB7 antibody (antibody, V domains shown)
VH: B1 VH with F27I, T28I, S49A, V53S, G56R, K57S, I70V, N74S, L102P
VL: B2 VL with Q3K, S46T, T69Q, D70E, F72L
notes: BB is read as heavy chain hBB001HB (BB7_RHB) with kappa chain hBB001KB (BB7_RKB)

Assays:
[1] = target: T1, human transglutaminase type 2 (TG2); test: cell-based or functional assay
cynomolgus monkey TG2 [2] = target: T2, cynomolgus monkey TG2; test: cell-based or functional assay
[3] = target: T1, human transglutaminase type 2 (TG2); test: ELISA on immobilised human TG2; r2 0.9794; EC50 95% confidence range 0.01199 to 0.03342 [panel B]
Procedure: (§1) Antibody binding to human and cynomolgus monkey TG2 was determined in an ELISA assay. Clear polystyrene "Maxisorp" 96-well plates (Nunc) were coated with 50 ng purified human or cynomogulus monkey TG2 in 50 µl 0.05 M carbonate-bicarbonate buffer pH 9.6 at 4° C. overnight. Control wells were coated with 50 µl 100 µg/ml bovine serum albumin (BSA). Plates were washed 3× with 300 µl phosphate-buffered saline pH7.4 (PBS) containing 0.1% Tween 20 (PBST) and blocked with 300 µl 3% w/v Marvel skimmed milk in PBS for 1 hour at room temperature. After 3× wash with PBST, 50 µl protein-A purified chimeric or humanised anti-TG2 antibodies or human IgG1 kappa […] control antibody or CUB7402 (Abcam) were serially diluted 4-fold from a top concentration of 50 nM in PBS, and added to the plate in duplicate. […] After 3× washes with PBST, the plates were developed with 50 µl TMB substrate (Sigma) for 5 min at room temperature before stopping the reaction with 25 µl 0.5M H2SO4 and reading absorbance at 450 nm in a microtiter plate reader (BioTek EL808). Dose response curves were analysed and EC50 values and other statistical parameters determined using a 4-parameter logistical fit of the data (GraphPad Prism).

cynomolgus monkey TG2 [4] = target: T2, cynomolgus monkey TG2; test: ELISA on immobilised cynomolgus monkey TG2; r2 0.9766; EC50 95% confidence range 0.04047 to 0.09246 [panel B]
Procedure: as §1

[5] = target: T1, human transglutaminase type 2 (TG2); test: SPR (Biacore T200), antibody captured on anti-human IgG1 Fc chip, TG2 injected; calcium condition not marked in the row
Procedure: (§2) Recombinant cynomolgus monkey TG2 was obtained from Trenzyme. Surface plasmon resonance (SPR) was measured on a Biacore T200 instrument (GE Healthcare). CM5 chips (GE Healthcare cat. no.: BR-1006-68) were coated with monoclonal mouse anti-human IgG1 (Fc) (MAH) antibody (GE Healthcare cat. no.: BR-1008-39) by amine-coupling as described in the manufacturers instructions. HBS-EP+ buffer (0.01 M HEPES, 0.15 M NaCl, 3 mM EDTA, 0.05% v/v Surfactant P20) and HBS-P+ buffer (0.01 M HEPES, 0.15 M NaCl, 0.05% Surfactant P20) were purchased from GE Healthcare as 10× stocks (cat. nos.: BR-1006-69 and BR-1006-71). Calcium Chloride solution was obtained from Sigma Aldrich (cat. no.:21115).
(§3) The method employed to determine the affinity of the anti-TG2 antibodies involved the capture of the chimeric or humanised antibodies on a MAH coated CM5 chip, followed by the injection of a series of TG2 samples in running buffer. The running buffer was 1×HBS-P+ containing 1 mM CaCl_2, or 1×HBS-EP+ for calcium-free experiments. Antibody capture was carried out for a contact time of 120 seconds at a flow rate of 10 μl/min resulting in the capture of approximately 40-80 RU. TG2 was injected over the immobilised antibody at concentrations ranging from 25 nM to 400 nM with a contact time up to 600 seconds at a flow rate of 30 μl/min. Dissociation of TG2 was typically measured for up to 5400 seconds (1.5 hours). Regeneration of the chip was then performed using 3 M MgCl_2, for a contact time of 60 seconds at a flow rate of […], followed by a 300 s stabilisation period before the next sample. For each of human and cynomolgus monkey TG2, at least 5 injections at a variety of concentrations were performed in at least two separate experiments.
(§4) Kinetic data were exported from the Biacore T200 Evaluation Software and analysed using GraphPad Prism, where the association phases and dissociation phases were analysed separately using a one phase association model and one-phase exponential decay model respectively. Association rates ($kon$) were calculated for each curve individually, and dissociation rates ($koff$) values from the long dissociation phase data collected. Where $koff$ values were calculated to be $<1\times10^-5$ s^-1, values were set at 1×10^-5 for analysis, as rates slower than this could not be estimated accurately.

cynomolgus monkey TG2 [6] = target: T2, cynomolgus monkey TG2; test: as above
Procedure: as §2, §3, §4

[7] = target: T1, human transglutaminase type 2 (TG2); test: cell-based or functional assay; remark: listed apart in the source
[8] = target: T1, human transglutaminase type 2 (TG2); test: cell-based or functional assay; remark: listed apart in the source
[9] = target: T1, human transglutaminase type 2 (TG2); test: ELISA on immobilised human TG2; r2 0.9792; EC50 95% confidence range ND [panel A]
Procedure: as §1

cynomolgus monkey TG2 [10] = target: T2, cynomolgus monkey TG2; test: ELISA on immobilised cynomolgus monkey TG2; r2 0.9329; EC50 95% confidence range 0.03522 to 0.08934 [panel A]
Procedure: as §1

[11] = target: T1, human transglutaminase type 2 (TG2); test: ELISA on immobilised human TG2; r2 0.9771; EC50 95% confidence range 0.04636 to 0.08491 [panel A]
Procedure: as §1

cynomolgus monkey TG2 [12] = target: T2, cynomolgus monkey TG2; test: ELISA on immobilised cynomolgus monkey TG2; r2 0.9361; EC50 95% confidence range 0.04198 to 0.1296 [panel A]
Procedure: as §1

| Binder | IC50 of enzymatic inhibition, dansylated lysine incorporation into N,N-dimethylated casein [continued), panel D] [1] [pM] | IC50 of enzymatic inhibition, dansylated lysine incorporation into N,N-dimethylated casein [panel B] (cynomolgus monkey TG2 [2]) [pM] | EC50 [3] [pM] | EC50 (cynomolgus monkey TG2 [4]) [pM] | Kd [5] [pM] | koff [5] [s⁻¹] | kon [5] [M⁻¹ s⁻¹] | Kd (cynomolgus monkey TG2 [6]) [pM] | koff (cynomolgus monkey TG2 [6]) [s⁻¹] | kon (cynomolgus monkey TG2 [6]) [M⁻¹ s⁻¹] | IC50, extracellular TG activity of HK-2 cells, biotin cadaverine incorporation into fibronectin [7] [pM] | IC50 of enzymatic inhibition, dansylated lysine incorporation into N,N-dimethylated casein [panel A] [8] [pM] | IC50 of enzymatic inhibition, dansylated lysine incorporation into N,N-dimethylated casein [panel A] (cynomolgus monkey TG2 [2]) [pM] | EC50 [9] [pM] | EC50 (cynomolgus monkey TG2 [10]) [pM] | IC50 of enzymatic inhibition, dansylated lysine incorporation into N,N-dimethylated casein [panel B] [8] [pM] | EC50 [11] [pM] | EC50 (cynomolgus monkey TG2 [12]) [pM] |
| --- | --- | --- | --- | --- | --- | --- | --- | --- | --- | --- | --- | --- | --- | --- | --- | --- | --- | --- |
| B1 | 3850 | 7850 | 20 | 61.2 | 120 | 2.4e-05 | 200000 | 110 | 1.8e-05 | 160000 | – | – | – | – | – | – | – | – |
| B2 | – | – | – | – | – | – | 270000 | < 30 | < 1e-05 | 300000 | 19800 | 5990 | 8500 | ~47.4 | 56.1 | – | – | – |
| B3 | – | – | – | – | < 40 | < 1e-05 | 240000 | 140 | 3.7e-05 | 270000 | 4900 | – | – | – | – | 985 | 62.7 | 73.8 |

Source: patent US10005846 (LIFEARC, dated 2018)
